Test results from patent US20210179715A1 (Genentech, published 2021).
Where “and” joins values, the source holds several entries; their conditions need not be identical. Equal entries are not always repeated. Where two headings read alike, the source gives them in different places.

Assays:
[1] = target: T1, human LY6G6D-Fc (human, UniProt O95868 20-104); assay: BIAcore SPR; LY6G6D-Fc on chip; TDB flowed; 37 C
T1 construct: also called hu Ly6G6D; huLY6G6D; not shown: linker and Fc part
T1 sequence: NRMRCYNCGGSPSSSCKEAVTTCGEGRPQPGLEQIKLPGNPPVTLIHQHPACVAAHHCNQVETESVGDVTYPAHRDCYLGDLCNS
Protocol: TDBs comprising the anti-LY6G6D arm 20Al2.QNTv12 and the anti-CD3 38E4.v1 (left panel; produced using a two-cell-manufacturing system), 38E4.v1 MD1 (center panel; produced using a one-cell-manufacturing system), or 38E4.v1 MD4 arm (right panel; produced using a one-cell-manufacturing system) were assayed for affinity for a human Ly6G6D polypeptide (FIG. 25) using a BIAcore assay.

[2] = target: T2, 27mer human CD3 polypeptide conjugated to biotin (human, conjugated to biotin (site not stated)); assay: BIAcore T200 SPR; biotin 27mer CD3 peptide on SA chip; TDB flowed; 37 C
T2 construct: The assay text says only '27mer human CD3 polypeptide'; also called HuCD3e pept biotin
T2 peptide: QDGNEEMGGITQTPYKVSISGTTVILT
Protocol: Assays were performed using a BIAcore T200. 27mer human and cyno CD3 polypeptides were conjugated to biotin and were immobilized on a SA CM5 chip. LY6G6D TDBs were flowed through at 37° C.

[3] = target: T1, human LY6G6D-Fc; assay: BIAcore SPR; LY6G6D-Fc on chip; TDB flowed; 37 C; remark: listed apart in the source
Protocol: The humanized rb.20A12 variant 20A12.QNTv12, the humanized rb.6E10 variant 6E10.v114, and the anti-LY6G6D 1G4 arm were paired with the anti-CD3 38E4v1 or 40G5c arm as TDBs and tested for affinity to human and cynomolgus LY6G6D in a BIAcore® assay. Rabbit 20Al2, rabbit 6E10, and humanized 20A12.QNTv12 and 20A12.SNVv12 were additionally assayed for binding as antigen-binding fragments (Fabs). LY6G6D-Fc was directly immobilized on a chip, and TDBs were flowed through at 37° C., except for the rb6E10 Fab, which was assayed at 25° C.

[4] = target: T3, LY6G6D on HT55 cells (human, UniProt O95868 20-104); assay: cell-based or functional assay
T3 sequence: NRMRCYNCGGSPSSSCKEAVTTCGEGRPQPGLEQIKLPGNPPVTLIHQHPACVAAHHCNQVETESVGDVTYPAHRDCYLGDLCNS

[5] = target: T2, 27mer human CD3 polypeptide conjugated …; assay: BIAcore T200 SPR; biotin 27mer CD3 peptide on SA chip; TDB flowed; 37 C
Protocol: The MD1 and MD4 variants thus retained the high affinity of 38E4v1. Assays were performed using a BIAcore T200: 27mer human and cyno CD3 polypeptides were conjugated to biotin and were immobilized on a SA CM5 chip, and TDBs were flowed through at 100 μl/min at 37° C.

[6] = target: T4, human extracellular domain (ECD) of CD3 (human, UniProt P07766 23-126); assay: BIAcore SPR; two-cell TDB
T4 construct: extracellular domain; also called huCD3

[7] = target: T1, human LY6G6D-Fc; assay: BIAcore SPR; two-cell TDB
[8] = target: T5, cyno extracellular domain (ECD) of CD3 (cynomolgus monkey, UniProt Q95LI5 22-117); assay: BIAcore SPR; two-cell TDB
T5 construct: extracellular domain; also called CyCD3
T5 sequence (looked up): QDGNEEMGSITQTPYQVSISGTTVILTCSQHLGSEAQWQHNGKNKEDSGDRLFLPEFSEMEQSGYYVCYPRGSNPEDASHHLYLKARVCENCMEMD

T4 sequence (P07766 23-126): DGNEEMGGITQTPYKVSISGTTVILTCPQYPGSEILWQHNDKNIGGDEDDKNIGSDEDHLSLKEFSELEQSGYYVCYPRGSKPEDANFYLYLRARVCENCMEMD

Kd [1]: 1.39 nM
koff [1]: 0.000416 s⁻¹
kon [1]: 299000 M⁻¹ s⁻¹
Kd [2]: 19.8 nM
Kd [3]: 2.02 nM
koff [3]: 0.000444 s⁻¹
kon [3]: 220000 M⁻¹ s⁻¹
average CD8+T cell activation EC50 [4]: ~87 ng/ml and ~583 pM
Kd [5]: 17.6 nM and 21.9 nM
koff [5]: 0.0429 s⁻¹ and 0.0486 s⁻¹
kon [5]: 2.44e+06 M⁻¹ s⁻¹ and 2.22e+06 M⁻¹ s⁻¹
Kd [6]: 20 nM
Kd [7]: 2.02 nM
Kd [8]: 15 nM
B1: LY6G6D TDB comprising the anti-LY6G6D 20A12.QNTv12 arm (two-cell) and the anti-CD3 38E4v1 arm (bispecific antibody, V domains shown)
VH 1: EVQLLESGGGLVQPGGSLRLSCAASGFDFVNNAMIWVRQAPGKGLEWVSALSFADNTAYYATWASGRFTISRDSSKTTVYLQMNSLRAEDTAVYYCMRGDLWGPGTLVTVSS
VL 1: DIQMTQSPSTLSASVGDRVTITCQASESITRYLNWYQQKPGKAPKLLIYDASKLPSGVPSRFSGSGSGTEFTLTISSLQPDDFATYYCQSTSFRGRSYQNTFGGGTKVEIK
VH 2: EVQLVQSGAEVKKPGASVKVSCKASGFTFTSYYIHWVRQAPGQGLEWIGWIYPENDNTKYNEKFKDRVTITADTSTSTAYLELSSLRSEDTAVYYCARDGYSRYYFDYWGQGTLVTVSS
VL 2: DIVMTQSPDSLAVSLGERATINCKSSQSLLNSRTRKNYLAWYQQKPGQSPKLLIYWTSTRKSGVPDRFSGSGSGTDFTLTISSLQAEDVAVYYCKQSFILRTFGQGTKVEIK
notes: Full-length IgG1 kappa; also called hu20A12.QNTv12/38E4v1 TDB; 20A12.QNTv12/38E4v1
average cell killing EC50 [4]: ~1.04 ng/ml and ~7 pM
